The text below walks through data of PMC11347149.

The subject of data set [1] is His6C-CoxC (LytTR DNA-binding domain) (Afipia carboxidovorans OM5). Put plainly: EMSA. The note with it: EMSA: 20 mM Tris-HCl pH 7.5, 50 mM KCl, 2 mM beta-mercaptoethanol, 10% glycerol, 250 ug/ml BSA, 50 ug/ml salmon sperm DNA, 1 mM DTT, 1 mM dithionite, 2 ng ….
The target in data set [2] is T1, His6C-CoxC (LytTR DNA-binding domain) (Afipia carboxidovorans OM5) (UniProt Q9KX27).
T1 sequence: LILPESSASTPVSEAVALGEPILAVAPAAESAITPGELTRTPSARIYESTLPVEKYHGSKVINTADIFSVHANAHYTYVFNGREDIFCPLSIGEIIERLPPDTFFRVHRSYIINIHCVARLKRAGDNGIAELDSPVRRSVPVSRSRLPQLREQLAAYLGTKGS
Briefly: EMSA. The note with it: EMSA: 20 mM Tris-HCl pH 7.5, 50 mM KCl, 2 mM beta-mercaptoethanol, 10% glycerol, 250 ug/ml BSA, 50 ug/ml salmon sperm DNA, 1 mM DTT, 1 mM dithionite, 2 ng ….

The substance PcoxB gave a Kd in data set [1] of 25 nM.

For “AATTCCAGTTCATGCGTATGTTACCGCCGTTGGTGGAATTTGGAAGTCGTTTGGGCAAAAGCCTTTGATGCTGCTTTGCGGCAACTTCTATCGTGCCCCACGAACGTCGCATCATAAGAAATGTGACGCCCGGGGGGGACAACGCAAATGGGTTGCGAAAATATGCAGGCGCGGCAAGCACCGTGTCGCCAAGCTAGGCATTTGGCTCAAACTGTCCCCTCGAAGCTCTCTTCAACTGCTGCAAAGCATCGACCGCATTTTCGCGGACGATATTGGGATCCCG (double strand) [PcoxB]”, in data set [2], the Kd is 25 nM and the binding result is “binds”.
